For 18 sequences, protein production results are on record in a protein production outcome set (Wang et al. 2014).

This data set in a line: label from the status in PepcDB records.

With “MDLPVDEWKSYLLQKWASLPTSVQVTISTAETLRDIFLHSSSLLQPEDELFLKRLSKGYLVGKDSDAPLFYREEGNKKFQEKDYTGAAVLYSKGVSHSRPNTEDMSLCHANRSAALFHLGQYETCLKDINIAQTHGYPERLQPKIMLRKAECLVALGRLQEASQTISDLERNFTATPALADVLPQTLQRNLHRLKMKMQEKDSLTESFPAALAKTLEDAALREENEQLSNASSSIGLCVDPLKGRCLVATKDILPGELLVQEDAFVSVLNPGELPPPHHGLDSKWDTRVTNGDLYCHRCLKHTLATVPCDGCSYAKYCSQECLQQAWELYHRTECPLGGLLLTLGVFCHIALRLTLLVGFEDVRKIITKLCDKISNKDICLPESNNQVKTLNYGLGESEKNGNIVETPIPGCDINGKYENNYNAVFNLLPHTENHSPEHKFLCALCVSALCRQLEAASLQAIPTERIVNSSQLKAAVTPELCPDVTIWGVAMLRHMLQLQCNAQAMTTIQHTGPKGSIVTDSRQVRLATGIFPVISLLNHSCSPNTSVSFISTVATIRASQRIRKGQEILHCYGPHKSRMGVAERQQKLRSQYFFDCACPACQTEAHRMAAGPRWEAFCCNSCGAPMQGDDVLRCGSRSCAESAVSRDHLVSRLQDLQQQVRVAQKLLRDGELERAVQRLSGCQRDAESFLWAEHAVVGEIADGLARACAALGDWQKSATHLQRSLCVVEVRHGPSSVEMGHELFKLAQIFFNGFAVPEALSTIQKAEEVLSLHCGPWDDEIQELQKMKSCLLDLPPTPVGPAL”, the protein production entry is given as “failed”. Turning to “MDLRRRQWFLSAILLSAALLIDPQFSTAATASENLVFEVRSKFAGKRVKDLGALRAHDVHRHSRLLSAIDIPLGGDSQPESIGLYFAKIGLGTPSRDFHVQVDTGSDILWVNCAGCIRCPRKSDLVELTPYDVDASSTAKSVSCSDNFCSYVNQRSECHSGSTCQYVIMYGDGSSTNGYLVKDVVHLDLVTGNRQTGSTNGTIIFGCGSKQSGQLGESQAAVDGIMGFGQSNSSFISQLASQGKVKRSFAHCLDNNNGGGIFAIGEVVSPKVKTTPMLSKSAHYSVNLNAIEVGNSVLELSSNAFDSGDDKGVIIDSGTTLVYLPDAVYNPLLNEILASHPELTLHTVQESFTCFHYTDKLDRFPTVTFQFDKSVSLAVYPREYLFQVREDTWCFGWQNGGLQTKGGASLTILGDMALSNKLVVYDIENQVIGWTNHNCSGGIQVKDEESGAIYTVGAHNLSWSSSLAITKLLTLVSLLIPFFCNVAL”, the protein production result was “not failed”. The entry for “MDLSGVKKKSLLGVKENNKKSSTRAPSPTKRKDRSDEKSKDRSKDKGATKESSEKDRGRDKTRKRRSASSGSSSTRSRSSSTSSSGSSTSTGSSSGSSSSSASSRSGSSSTSRSSSSSSSSGSPSPSRRRHDNRRRSRSKSKPPKRDEKERKRRTLSPKPTKVHIGRLTRNVTKDHIMEIFSTYGKIKMIDMPVERMHPHLSKGYAYVEFENPDEAEXALKHMDGGQLMARDHCYCCVGTLASATTSRFSPPRRMLPPPPCGVGHPHG” is “not failed”; for “MDLSSPSSFTATIDAPLRAAVFDSAVEAVLLVDPTLDQIVDANNAASALLGHDRDTLLQTRFSALHGAQLPALVVFTQAVFAKGTYWTHALTPLHADGTQLRLEYAGKLLPYRGRSLLLLTMSDLEQ” it is “failed”. “MDNDKYLKGTTTVGVVCTDGIVLASEQRATMGHFIASKTAKKVYQIDDLVGMTTAGSVGDAQQLVRLVSVESQLYKMRRNESMTIKGIATLMSNFLNANRYYPMMVQLLIGGVDKNGPAIYSLDPMGGSIEETRISATGSGSPMAYGVLEDQYREDIAVKEGLDLAIRAIHNATKRDSASGENIDVVVITKEAFKRLDPEEVKSRRALLN”: the protein production entry is “failed”. Turning to “MDNEMNYGSDYKFIPATSIESGHGIEVLRDLFCYTIQIVNICFVGNPETNDFVLVDAGMPKCANEIISIAKDRFGTNSRPKAIILTHGHFDHVGGIIELIKHWDVHVYAHQMEIPFLTGQQSYPEPDPTVEGGMVAKMSPLFPNEPIDLGNNVKALPTDGTVPHMPEFRWIHTPGHTPGHISLFREKDRTLIAGDAFVTVKQEYLYKVITQEQEISGPPRYLTTDWKAAKESVLKLEKLKPLTAVTGHGIPMSGELLSTSLKTLVQEFDKIAVPDYGKYIDKKMHLEHHHHHH”, the protein production result is “not failed”. Under “MDNKKLFVFIKYFTLVFMIVGIIFGGKEFNAQNITLMLILIINHQLRTFSLNKYIHKIISFILEIVLVVICNFWISGYLFTYLILLAIDANVMFKKFLASTFNVVIILIGVYFSFNYSLNYKIMNLGVSIIIIAVFYFNKYENEKKIEAQDLYDRLRISEEKLKKANRDLEMYASSVEELTLLRERNRISREIHDSVGHSLSTMVIQLGAIEKIIRKAPEKAELLTKNLRKFTQKSLDEVRAAVRAIKPKEFEEYEGILSIEELISNFKKMANIDVRLAFTKEKWSLNSDQSFVLYRIVQEFLSNSARHGRASRVDVIMAFSEKNLLVTLKDNGQGCQSIIEGVGMKSMRERVKELGGYFEYKTAPYEGFTVKIELAKREKLKVYSGGENNG” stands “failed”. The entry for “MDNKVILVGGFHEIIELCEDNDIEIAGIIDNYLTNDTYWGYPIIGTDDKAKVLFETYKNVPVLITPDVPHVRYKLYHYYKSIGFQVASLISRDASISRSAIIGEGTIIQRGANLSSNIKIGQMVKVNTNANIMHDCLIGNYVTVAPNAVLLGKVEIDDKAYIGANATLLPSVKIGENVTVGAGSVVTKSVRPNTVVKGSPAK” is “failed”; for “MDNLETDRLILINYTLEMIQATINGTEALEKTSGYHVSPDWPGIDFFFYLPYVLENVKKDDKMIKWTRLVVLKTENKIIGEIGGQGNPDETGEIEIGYSIVPDYQNKGYMSEALISMIDWLEHQPVINRIFARCYEQNEASIQVLKHNHFVH” it is “failed”; for “MDNPCPTCGQELEWTGQYHCSACTVDYCKVGFCPECGSELEKLQACGAANYFCNQCNELKSKSKIRFVFQPLNGNSQLEHHHHHH” it is “not failed”. The entry for “MDNRNIDPYFNPEQFLETQKYKGTVTALIFLLLFFIFLMVAFKKAFFAQANMPNLVMSKQDTAARGTIYSQDNYSLATSQTLFKLGFDTRFLNPDKEDFFIDFLSIYSNIPKKSLKDAINTKGYIILAYDLTPNMAANIRDLNKKFLAFGVFQNFKDAHDKVWQKQGLNIEVSGVSRHYPYQNSLEPIIGYVQKQEEDKLTLTTGKKGVEKSQDHLLKAQQNGIRTGKRDVSFNFIQNHSYTEVERLDGYEVYLSVPLKLQREIETLLDKTKDKLKAKEILVGIINPKSGEILSLASSKRFNPNAIKTSDYESLNLSVAEKVFEPGSTIKPIVYSLLLDKNLINPKERIDLNHGYYQLGKYTIKDDFIPSKKAVVEDILIQSSNVGMIKISKNLNPKDFYNGLLGYGFSQKTGIDLSLEATGKIPPLSAFKREVLKGSVSYGYGLNATFLQLLRAYAVFSNEGKLTTPYLVQRETAPNGDIYIPSPKPTFQVISPKSARKMKETLIKVVRYGTGKNAQFEGLYIGGKTGTARVAKNGSYSAQSYNSSFFGFAEDERQVFTIGVVILGSHGKEEYYASKIAAPIFKEITEILVRYNYLSPSIAIQNALEKNRFKIK” is “failed”; for “MDNTRSVYGIDLGTTYSCIAQVDKFDQAIVLRNFEGDATTPSAVYFEDMDHVVVGKEAKGMLATEPTKTAVFIKRHIGVDDSFDKNTNEFPYHYDPTEISAFILKKLVKDANDLGDNPEPIKDVVITCPAYFGTKERMQTKQAGEIAGLNVLSIINEPTAAAISYGVKTDQKKTVLVYDLGGGTFDVTLINVNGGAIKVIATGGDHHLGGVDWDTALAEYMLAAFNEQNNTSYSFEDRLDLKYELLLLAEDKKKVLTAKQTAKATYQYEGNSARIEISRELFNSLTERKLDETIDATKKVIAIAKEKGYNNIDEILLVGGSSRMPQIKERVDKEFNCDAKLTDPDECVAKGAAIYAMNAAYSQAVRDYEEGESDDKPAPLRGDRTTVVNVTSKTYGTDVIIEGQSMVQNLIFANSSLPTKRIETFTTSIPNQRGVSVKVFESDFTNMETESIVEERFCTLIDDHTLKLSKDWPQGTQISVTYQIDQEGILHGLAYVENDKLEFDLKITGVKCEEELRKSKAIIDKASVE” it is “failed”. For the sequence “MDPAMSFAEIFTVVVPVFLVIAVGYGTGRRALFDAGGAQALRELTMQLALPAALLLSIWQTPRRVLVEQLPLVGLLAFGLLGVYAVLLGVLRLAGRRPLRRAALFALACVQPQYAFMGTSILGGLFGTAQAAVPIAVAGILVNVVLDPVVLILLGMPEHPASRTAATAAAATSAVRRPALVTVGGGAPGESVEAAAPVAAGDASPEHRPSVLRTVGHALREPFCWGPVLGLILSVGGVGVPKVAGTSLTLLAGAASAAALLYVGVSVSRIGRPKLTPAVWAIALTSVVVLPLLVYGAGLAMASAADAAQAALIVAFPVSPVPLMFAARHGSKADVRTIGSAVVLSLLLSFVTLPLLIELIG”, the protein production entry was “not failed”. The entry for “MDPEKGTIRLDFMHSLGTWMVPELIRTFRAEHPNVEFQLHQAAAMLLVDRVLADETDLALVGPKPAEVGTSLGWAPLLRQRLALAVPADHRLASFSGQGELPLITAAEEPFVAMRAGFGTRLLMDALAEEAGFVPNVVFESME” is “failed”. Under “MDPLLLIGAITAGGVLIGGGVHFVPVGGAPAAMATATGVGTGTAMLAAGAGLTGLITAAAMTGQSPLMIMAAGAVGSMLMIGITMLVGNLIYVYGVGTVPVSAKVAVDPLTGMEQEKYVTPGTEGHGLPTVCFVSGIIGGALGGIGGGLIYWALNEALKTLSYGAIGAAGVAAIFAVGIFFINAVIASYNIGGTIEGFHDPKFKRIGRGIVACLIASIVAGALSTLLVYGGVF” stands “failed”; under “MDPNTVSSFQVDCFLWHVRKRLADQELGDAPFLDRLRRDQKSLRGRGNTLGLDIETATRAGKQIVERILEEEPDEALKMPASRYLTDMTLEEMSRDWFMLMPKQKVAGSLCIKMDQAIMDKTIILKANFSVILDRLETLILLRAFTEEGAIVGEISPLPSLPGHTGEDVKNAIGVLIGGLEWNDNTVRVSETIQRFAWRSSDEDGRLPLPPNQKRKMARTIESEV”, “not failed”. The entry for “MDPSLHARPHPRRRLRCALLALACGTGAAHAATPPPYLQTQRSFEQRAADLVSRMTLEEKAAQMQNAAPAIPRLGVPAYDWWNEALHGVARAGGATVFPQAIGMAATFDLPLMHEVATAISDEARAKHHRFLRQHQHARYQGLTFWSPNINIFRDPRWGRGQETYGEDPFLTARMGVTFVQGLQGEGSDAPKNAQGERYRKLDATAKHFAVHSGPEADRHHFDARPSQRDLYETYLPAFEALVKDGKVDAVMGAYNRVYGESASASKFLLQDVLRQQWGFKGYVVSDCWAIVDVWKHHKIVATREQAAALAVTHGTELECGEEYSTLPAAVHQGLIDEAQIDTALQTLMTARMRLGMFDPPGQLPWSKIPASVNQSPAHDALARRTARESLVLLKNDGLLPLSRATLKRIAVIGPTADDTMALLGNYYGTPAAPVTVLQGIRAAAPNAQVLYARGADLVEGRNDPAATPLIEPHYLRPSANSPERGLRGEYFRNRDLSGKPALVRVDAQIGFTWDRGSPTDNLLARGEAGPSEAVPADNFSIRWSGQLVPPTTGTYHLEAAADDGVRLYLDGKPVIDRWSTSDRLHADGVDVQLQAGRSYDLRLDYFEGERDAAVRLAWRQPGAKPPLQEALDVARSADVVVFVGGLTGDVEGEEMKVSYPGFAGGDRTDLRLPKPQRELLEALQATGKPVVAVLTAGSALAVDWAQQHVPAILLAWYPGQRGGTAVADTLFGDANPGGRLPVTFYKESETLPAFDDYAMHGRTYRYFGGTPLYPFGHGLSYTQFAYSDLRLDRSTLTADGALTATVAVKNTGQRAGDEVVQLYLHPLKPQRERAGKELRGFQRLALQPGQQRELRFTINAKDALRIYDAQRKAYTVDPGAYEVQIGASSADIRARQRFTVTDK” is “failed”; for “MDQEAFLRERIEKAQAQLQKLRDENRVLRARQIMWGCIEGTIDVCQLGEKDLQDLSSVIDDYLDSLKSRIEYLKKNGEPSSSLPPRVLQDLNVKEDGDIPSMDGSHHQFETNRLTTITTTADACAPNITNNP” it is “failed”.
